The record followed here is patent publication US20170183404A1.

In the test the target is Purified Mor1 (Example 9) (Mus musculus (Mouse)) (UniProt P42866). In words: cell-based or functional assay.

Heterotrimeric Gi, sequence (P63096 2-354): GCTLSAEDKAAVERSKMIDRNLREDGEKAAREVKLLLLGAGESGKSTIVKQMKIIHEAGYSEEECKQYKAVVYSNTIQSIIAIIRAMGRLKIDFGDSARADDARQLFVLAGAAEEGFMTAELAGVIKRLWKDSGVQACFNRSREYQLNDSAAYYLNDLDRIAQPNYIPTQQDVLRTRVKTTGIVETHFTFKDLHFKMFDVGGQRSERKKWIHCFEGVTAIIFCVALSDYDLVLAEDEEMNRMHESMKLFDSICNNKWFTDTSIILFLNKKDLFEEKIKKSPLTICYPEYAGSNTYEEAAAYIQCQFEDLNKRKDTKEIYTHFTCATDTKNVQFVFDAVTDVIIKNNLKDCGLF
Heterotrimeric Gi, sequence (P62873 2-340): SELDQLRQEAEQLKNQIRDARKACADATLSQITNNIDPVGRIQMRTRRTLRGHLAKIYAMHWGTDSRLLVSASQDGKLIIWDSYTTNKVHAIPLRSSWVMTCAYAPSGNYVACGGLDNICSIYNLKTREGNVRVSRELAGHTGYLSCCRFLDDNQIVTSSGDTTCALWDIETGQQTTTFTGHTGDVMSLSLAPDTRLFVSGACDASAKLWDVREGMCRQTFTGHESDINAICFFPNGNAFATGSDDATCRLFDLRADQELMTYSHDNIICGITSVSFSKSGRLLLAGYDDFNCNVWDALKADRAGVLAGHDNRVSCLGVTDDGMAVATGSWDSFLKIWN

As for “Heterotrimeric Gi (from UniProt P63096 2-354; P62873 2-340)”, the enhancement of agonist (BU72) affinity for Mor1 in HDL particles came to 220 fold.
